Measured values published in article PMC8319299 (2020).
Where no end group is shown, it is not given here. [ ]: non-standard residue; d: D form. Lys(Me3) = C[N+](C)(C)CCCC[C@H](N)C(=O)O

Target: EED (amino acids 40-441) (human, UniProt O75530-1 40-441)
Test: FP

EED (amino acids 40-441), sequence (O75530 40-441): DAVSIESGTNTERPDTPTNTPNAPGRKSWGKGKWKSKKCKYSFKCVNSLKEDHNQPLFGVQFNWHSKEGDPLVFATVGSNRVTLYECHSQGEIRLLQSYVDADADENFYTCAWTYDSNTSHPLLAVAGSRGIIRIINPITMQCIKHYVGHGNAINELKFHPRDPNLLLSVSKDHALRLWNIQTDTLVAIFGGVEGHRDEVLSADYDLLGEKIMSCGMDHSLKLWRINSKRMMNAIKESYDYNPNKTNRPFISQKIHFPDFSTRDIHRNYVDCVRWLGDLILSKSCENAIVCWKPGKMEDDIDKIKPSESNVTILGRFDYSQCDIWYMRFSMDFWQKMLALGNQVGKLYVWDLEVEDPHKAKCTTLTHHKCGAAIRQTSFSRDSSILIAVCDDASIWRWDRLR

- Kd: 223 µM
Binder: LK[Lys(Me3)]APG [PALI1-K1241me3 peptide with the F1242A mutation]
